This passage reports Kd results from publication PMC11203719, “Mts1 (S100A4) and Its Peptide Demonstrate Cytotoxic Activity in Complex with Tag7 (PGLYRP1) Peptide” (International Journal of Molecular Sciences, 2024).

For the assay, the target named is Mts1 (S100A4) protein, recombinant human (human) (UniProt P26447). Kind of assay: MST; Mts1 labelled with Alexa Fluor 633 (200 nM), preincubated 20 min in the dark at room temperature with 16 concentrations of Tag7 or peptide; Monolith NT.115, 10% IR laser power; apparent Kd.
Sequence of Mts1 (S100A4) protein, recombinant human (human) (P26447 whole entry): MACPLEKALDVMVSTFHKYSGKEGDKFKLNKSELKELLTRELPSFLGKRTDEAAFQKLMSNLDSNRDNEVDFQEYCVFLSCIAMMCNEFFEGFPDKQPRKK

Turning to “Tag7 (PGLYRP1) protein, recombinant (from UniProt O88593 19-182) (natural protein)”, the Kd stood at 9.21 µM.
